From patent US20250171562A1

What was measured:
[1] = biological target: IgE on basophils of allergic donors (human) (UniProt P01854); assay: IgE surface stain on donor basophils, flow cytometry
[2] = biological target: IgE on basophils of allergic donors (human) (UniProt P01854); assay: cell-based or functional assay
[3] = biological target: mixture of three Der p 2 specific recombinant human IgE clones H10, H12, P4E (human) (UniProt P01854); assay: RBL-SX38 IgE displacement, FACS
[4] = biological target: IgE on basophils of allergic donors (human) (UniProt P01854); assay: IgE surface stain on donor basophils after 1 µM sdAb, flow cytometry

Chain of IgE on basophils of allergic donors (human) (P01854 1-428): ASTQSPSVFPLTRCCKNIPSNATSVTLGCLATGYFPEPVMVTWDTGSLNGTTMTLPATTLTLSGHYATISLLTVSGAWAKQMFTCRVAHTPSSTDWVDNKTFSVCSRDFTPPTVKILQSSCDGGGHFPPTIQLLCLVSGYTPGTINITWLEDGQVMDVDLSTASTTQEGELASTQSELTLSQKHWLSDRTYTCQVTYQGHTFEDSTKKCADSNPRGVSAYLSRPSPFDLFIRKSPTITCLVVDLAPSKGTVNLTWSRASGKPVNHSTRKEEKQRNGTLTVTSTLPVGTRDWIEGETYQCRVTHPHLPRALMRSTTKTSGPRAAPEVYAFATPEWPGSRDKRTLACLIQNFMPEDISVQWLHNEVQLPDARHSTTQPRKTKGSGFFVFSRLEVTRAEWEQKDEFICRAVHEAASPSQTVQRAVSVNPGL
Chain of mixture of three Der p 2 specific recombinant human IgE clones H10, H12, P4E (human) (P01854 other isoform, or with tags, fused parts or gaps): as the sequence (P01854 1-428) above, with L428K counted along it

| displacement effect on IgE surface expression [1] [%] | fold decrease in rDerp2-induced activation of basophils of a HDM allergic donor (% CD63 pos basophils) [2] [fold] | Max effect/effect 1 µM [3] [%] | displacement effect measured by IgE expression [4] [%] | Binder |
| --- | --- | --- | --- | --- |
| 100 |  |  |  | A2+B2 (protein) VHH 1: EVQLLESGGGLVQPGGSLRLSCAASGFRFGNYDMAWVRQAPGKRYEWVSSIDTGGDITHYADSVKGRFTISRDNAKNTLYLQMNSLRPEDTAEYWCATDEEYALGPNEFDYYGQGTLVTVS VHH 2: QVQLVESGGGLVQAGGSLRLSCAVFGSTFSNNVADWYRQAPGKQRELVARISASGATREYGDSVKGRFTISRDDAKNTMYLQMNNLKPEDTAVYRCHKIEWEDLSRKDYWGQGTQVTVS |
| 70 |  |  |  | sdAb A2 (VHH) VHH: EVQLLESGGGLVQPGGSLRLSCAASGFRFGNYDMAWVRQAPGKRYEWVSSIDTGGDITHYADSVKGRFTISRDNAKNTLYLQMNSLRPEDTAEYWCATDEEYALGPNEFDYYGQGTLVTVS |
| 70 |  |  |  | A2+B3 (protein) VHH 1: EVQLLESGGGLVQPGGSLRLSCAASGFRFGNYDMAWVRQAPGKRYEWVSSIDTGGDITHYADSVKGRFTISRDNAKNTLYLQMNSLRPEDTAEYWCATDEEYALGPNEFDYYGQGTLVTVS VHH 2: DVQLQESGGGLVQAGGSLRLSCAASGFIFRLAGMSWVRQAPGKGFEWVSGITMDGSTTNYADSVKGRFTISRDNSKNRLYLQMNSLKPEDTAVYYCARGAKGGYNDPRGQGTQVTVS |
|  | 10 | 40 | 16 | sdAb A1 (VHH) VHH: EVQLLESGGGLVQPGGSLRLSCAASGFTFGNYDMAWVRQAPGKRPEWVSSIDTGGDITHYADSVKGRFTISRDNAKNTLYLQMNSLRPEDTAVYWCATDEEYALGPNEFDYYGQGTLVTVSS |
